± gives the uncertainty stated by the source.
Assay: protein stability index of a GFP-peptide fusion (yeast GPS) (PSI 1-4); higher = more stable; sorted into four equal gates, so the index is relative within each strain
How it was run: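 Peptides tiling yeast proteins in 17-residue segments were fused downstream of GFP, with Cherry expressed from the same plasmid. As a pooled library in yeast, mid-log cultures grown in leucine-free medium were sorted into four equal gates by GFP/Cherry fluorescence ratio. Gate plasmids were PCR-amplified and Illumina-sequenced, and barcodes linked reads to strains. Each peptide received a protein stability index equal to the sum of each gate's read frequency times its gate number.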

Sequence | protein stability index (doa10∆) | protein stability index (pdr5∆) | protein stability index (san1∆) | protein stability index (ubr1∆)
SQFLKRVHANLQCISQI [SNF11] | 1.17 ± 0.043 | 1.25 ± 0.041 | 1.21 ± 0.07 | 1.2 ± 0.057
RPNLPTHNFKLSGVSNS [RGR1] | 1.72 ± 0.13 | 1.49 ± 0.062 | 1.85 ± 0.088 | 2.12 ± 0.054
EYSDNFPVSLSQPSKKS [SIR4] | 3.08 ± 0.045 | 3.05 ± 0.046 | 2.98 ± 0.04 | 3.1 ± 0.031
RLTRLWIKNEQERQRQI [PRP8] | 2.42 ± 0.14 | 2.56 ± 0.26 |  | 
VPSAKPLILTPPQLANQ [SNF11] | 2.63 ± 0.049 | 2.26 ± 0.052 | 2.64 ± 0.052 | 2.03 ± 0.033
EMIRGRSPEEIRRTFNI [SKP1] |  |  |  | 2.34 ± 0.28
HKQISAEDLTIAAKTHI [SIN4] | 3.03 ± 0.12 | 3.1 ± 0.079 | 3.35 ± 0.084 | 2.76 ± 0.088
YSSYIYKVLKQTHPDTG [HTB1] | 2.58 ± 0.065 | 2.05 ± 0.051 | 1.7 ± 0.074 | 1.81 ± 0.045
MDIMEDFLRYINIKYLR [SNF2] | 1.54 ± 0.039 | 1.37 ± 0.044 | 1.37 ± 0.12 | 1.3 ± 0.036
EFDSTDTSLCINGEPSI [RRI1] | 3.16 ± 0.077 | 3.15 ± 0.088 | 3.08 ± 0.054 | 3.24 ± 0.046
KMLNEFVKKTSEEIDSL [SMC2] | 2.61 ± 0.099 | 3.19 ± 0.15 |  | 3.09 ± 0.12
MQFAKSKTVKVLKTLIE [RPN6] | 1.24 ± 0.071 | 1.43 ± 0.077 | 2.51 ± 0.11 | 2.26 ± 0.093
VNTMGTGGQTIDNGTGR [MED6] | 3.27 ± 0.14 | 3.06 ± 0.24 | 3.19 ± 0.077 | 3.19 ± 0.073
LGDKELWPVAIGLIALS [YJR042W/NUP85] | 1.57 ± 0.17 | 1.65 ± 0.15 | 1.64 ± 0.27 | 1.73 ± 0.16
EILRIHSRKMNLTRGIN [RPT6] | 2.85 ± 0.06 | 2.99 ± 0.071 | 2.29 ± 0.075 | 2.52 ± 0.06
EKGLNELSIRDVTHTLG [SMC4] | 1.34 ± 0.14 | 2.42 ± 0.092 | 2.48 ± 0.17 | 1.57 ± 0.1
CASIPIAIIKDTSDIIV [RRP46] | 1.73 ± 0.044 | 1.88 ± 0.043 | 1.75 ± 0.065 | 1.6 ± 0.04
LGDMENNLEKYPFRYKT [RTT102] | 3.44 ± 0.073 | 3.39 ± 0.055 | 3.46 ± 0.042 | 3.43 ± 0.081
VWFSHPRRFGKGSRQCR [RPS29B] | 3.02 ± 0.1 | 3.21 ± 0.065 | 3.44 ± 0.091 | 3.23 ± 0.071
VSSRVRGYTCQFVDMVL [FAS1] | 1.76 ± 0.09 | 1.94 ± 0.07 | 1.44 ± 0.094 | 2.02 ± 0.081
IRQYALATAHIYLSRFL [SSN8] | 1.38 ± 0.034 | 1.34 ± 0.036 | 1.26 ± 0.12 | 1.11 ± 0.04
DPRNLVNQTGSTKKDTV [YCG1] | 2.9 ± 0.097 | 3.15 ± 0.084 | 2.53 ± 0.075 | 2.86 ± 0.039
KIVDKDGIRQVDDFQAQ [PRE1] | 2.9 ± 0.14 | 2.9 ± 0.11 |  | 
FIERNFTPQEIEYCSAQ [FAS2] |  | 3.54 ± 0.26 | 2.72 ± 0.26 | 2.73 ± 0.22
VYTAIYNYCVNKSRSSG [CDC53] | 2.48 ± 0.074 | 2.62 ± 0.057 | 2.61 ± 0.053 | 2.71 ± 0.043
GRKVLQKVQGESHIDSR [SIR4] | 3.27 ± 0.14 | 3.33 ± 0.079 | 3.17 ± 0.09 | 3.27 ± 0.09
YESIATYASVTGLFTLE [RPN7] |  |  |  | 1.96 ± 0.29
KAFTNWNKRDFMAFINA [ISW2] | 1.26 ± 0.078 | 1.25 ± 0.091 | 1.25 ± 0.16 | 1.16 ± 0.062
